Experimental data reported in the supplement of paper PMC5998384.

Columns and labels:
HeLa Kyoto [1] = test: solubility in G1/S (NP-40 vs SDS abundance) (log2 ratio); higher = more soluble; conditions: cell cycle stage: G1/S
HeLa Kyoto [2] = test: solubility change mitosis vs G1/S (difference of NP-40 vs SDS log2 ratios) (log2 ratio difference); higher = more soluble in mitosis
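Throughout, for solubility change mitosis vs G1/S (difference of NP-40 vs SDS log2 ratios): synchronized HeLa Kyoto cells (double thymidine block for G1/S, nocodazole release for mitosis), protein amounts in NP-40 versus SDS lysates quantified by mass spectrometry, three biological replicates.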
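Throughout, for solubility in G1/S (NP-40 vs SDS abundance): HeLa Kyoto cells arrested at G1/S by double thymidine block, proteins quantified by TMT10plex mass spectrometry in mild NP-40 versus SDS extracts, three biological replicates.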

Chain of TFAP2C (chain, as listed by the source): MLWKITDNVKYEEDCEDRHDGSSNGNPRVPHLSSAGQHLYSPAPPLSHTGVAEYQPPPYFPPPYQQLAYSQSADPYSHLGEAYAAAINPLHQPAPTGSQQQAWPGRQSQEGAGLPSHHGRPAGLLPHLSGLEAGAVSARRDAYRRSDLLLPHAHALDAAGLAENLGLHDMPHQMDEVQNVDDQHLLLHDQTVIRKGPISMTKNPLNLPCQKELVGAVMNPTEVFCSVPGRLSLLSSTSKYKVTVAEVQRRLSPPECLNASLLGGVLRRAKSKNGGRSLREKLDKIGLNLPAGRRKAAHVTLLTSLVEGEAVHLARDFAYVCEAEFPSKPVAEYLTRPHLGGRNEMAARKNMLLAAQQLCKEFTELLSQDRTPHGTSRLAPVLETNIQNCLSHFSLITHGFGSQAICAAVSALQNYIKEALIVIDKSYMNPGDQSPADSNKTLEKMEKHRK

| Substance | solubility in G1/S (log2) (HeLa Kyoto [1]) | solubility change mitosis (log2) (HeLa Kyoto [2]) |
| --- | --- | --- |
| MASLGPAAAGEQASGAEAEPGPAGPPPPPSPSSLGPLLPLQREPLYNWQATKASLKERFAFLFNSELLSDVRFVLGKGRGAAAAGGPQRIPAHRFVLAAGSAVFDAMFNGGMATTSAEIELPDVEPAAFLALLRFLYSDEVQIGPETVMTTLYTAKKYAVPALEAHCVEFLTKHLRADNAFMLLTQARLFDEPQLASLCLDTIDKSTMDAISAEGFTDIDIDTLCAVLERDTLSIRESRLFGAVVRWAEAECQRQQLPVTFGNKQKVLGKALSLIRFPLMTIEEFAAGPAQSGILSDREVVNLFLHFTVNPKPRVEYIDRPRCCLRGKECCINRFQQVESRWGYSGTSDRIRFTVNRRISIVGFGLYGSIHGPTDYQVNIQIIEYEKKQTLGQNDTGFSCDGTANTFRVMFKEPIEILPNVCYTACATLKGPDSHYGTKGLKKVVHETPAASKTVFFFFSSPGNNNGTSIEDGQIPEIIFYT [BTBD1] | -0.225 | 0.0289 |
| MGCAPSIHISERLVAEDAPSPAAPPLSSGGPRLPQGQKTAALPRTRGAGLLESELRDGSGKKVAVADVQFGPMRFHQDQLQVLLVFTKEDNQCNGFCRACEKAGFKCTVTKEAQAVLACFLDKHHDIIIIDHRNPRQLDAEALCRSIRSSKLSENTVIVGVVRRVDREELSVMPFISAGFTRRYVENPNIMACYNELLQLEFGEVRSQLKLRACNSVFTALENSEDAIEITSEDRFIQYANPAFETTMGYQSGELIGKELGEVPINEKKADLLDTINSCIRIGKEWQGIYYAKKKNGDNIQQNVKIIPVIGQGGKIRHYVSIIRVCNGNNKAEKISECVQSDTHTDNQTGKHKDRRKGSLDVKAVASRATEVSSQRRHSSMARIHSMTIEAPITKVINIINAAQESSPMPVTEALDRVLEILRTTELYSPQFGAKDDDPHANDLVGGLMSDGLRRLSGNEYVLSTKNTQMVSSNIITPISLDDVPPRIARAMENEEYWDFDIFELEAATHNRPLIYLGLKMFARFGICEFLHCSESTLRSWLQIIEANYHSSNPYHNSTHSADVLHATAYFLSKERIKETLDPIDEVAALIAATIHDVDHPGRTNSFLCNAGSELAILYNDTAVLESHHAALAFQLTTGDDKCNIFKNMERNDYRTLRQGIIDMVLATEMTKHFEHVNKFVNSINKPLATLEENGETDKNQEVINTMLRTPENRTLIKRMLIKCADVSNPCRPLQYCIEWAARISEEYFSQTDEEKQQGLPVVMPVFDRNTCSIPKSQISFIDYFITDMFDAWDAFVDLPDLMQHLDNNFKYWKGLDEMKLRNLRPPPE [PDE8A] | -0.192 | -0.222 |
| MGNTTTKFRKALINGDENLACQIYENNPQLKESLDPNTSYGEPYQHNTPLHYAARHGMNKILGTFLGRDGNPNKRNVHNETSMHLLCMGPQIMISEGALHPRLARPTEDDFRRADCLQMILKWKGAKLDQGEYERAAIDAVDNKKNTPLHYAAASGMKACVELLVKHGGDLFAENENKDTPCDCAEKQHHKDLALNLESQMVFSRDPEAEEIEAEYAALDKREPYEGLRPQDLRRLKDMLIVETADMLQAPLFTAEALLRAHDWDREKLLEAWMSNPENCCQRSGVQMPTPPPSGYNAWDTLPSPRTPRTTRSSVTSPDEISLSPGDLDTSLCDICMCSISVFEDPVDMPCGHDFCRGCWESFLNLKIQEGEAHNIFCPAYDCFQLVPVDIIESVVSKEMDKRYLQFDIKAFVENNPAIKWCPTPGCDRAVRLTKQGSNTSGSDTLSFPLLRAPAVDCGKGHLFCWECLGEAHEPCDCQTWKNWLQKITEMKPEELVGVSEAYEDAANCLWLLTNSKPCANCKSPIQKNEGCNHMQCAKCKYDFCWICLEEWKKHSSSTGGYYRCTRYEVIQHVEEQSKEMTVEAEKKHKRFQELDRFMHYYTRFKNHEHSYQLEQRLLKTAKEKMEQLSRALKETEGGCPDTTFIEDAVHVLLKTRRILKCSYPYGFFLEPKSTKKEIFELMQTDLEMVTEDLAQKVNRPYLRTPRHKIIKAACLVQQKRQEFLASVARGVAPADSPEAPRRSFAGGTWDWEYLGFASPEEYAEFQYRRRHRQRRRGDVHSLLSNPPDPDEPSESTLDIPEGGSSSRRPGTSVVSSASMSVLHSSSLRDYTPASRSENQDSLQALSSLDEDDPNILLAIQLSLQESGLALDEETRDFLSNEASLGAIGTSLPSRLDSVPRNTDSPRAALSSSELLELGDSLMRLGAENDPFSTDTLSSHPLSEARSDFCPSSSDPDSAGQDPNINDNLLGNIMAWFHDMNPQSIALIPPATTEISADSQLPCIKDGSEGVKDVELVLPEDSMFEDASVSEGRGTQIEENPLEENILAGEAASQAGDSGNEAANRGDGSDVSSQTPQTSSDWLEQVHLV [ANKIB1] | 0.00548 | -0.221 |
| OBSL1 | -0.276 | -0.0157 |
| MGKAKVPASKRAPSSPVAKPGPVKTLTRKKNKKKKRFWKSKAREVSKKPASGPGAVVRPPKAPEDFSQNWKALQEWLLKQKSQAPEKPLVISQMGSKKKPKIIQQNKKETSPQVKGEEMPAGKDQEASRGSVPSGSKMDRRAPVPRTKASGTEHNKKGTKERTNGDIVPERGDIEHKKRKAKEAAPAPPTEEDIWFDDVDPADIEAAIGPEAAKIARKQLGQSEGSVSLSLVKEQAFGGLTRALALDCEMVGVGPKGEESMAARVSIVNQYGKCVYDKYVKPTEPVTDYRTAVSGIRPENLKQGEELEVVQKEVAEMLKGRILVGHALHNDLKVLFLDHPKKKIRDTQKYKPFKSQVKSGRPSLRLLSEKILGLQVQQAEHCSIQDAQAAMRLYVMVKKEWESMARDRRPLLTAPDHCSDDA [REXO4] | -0.936 | 0.875 |
| MSKQQPTQFINPETPGYVGFANLPNQVHRKSVKKGFEFTLMVVGESGLGKSTLINSLFLTDLYPERVIPGAAEKIERTVQIEASTVEIEERGVKLRLTVVDTPGYGDAINCRDCFKTIISYIDEQFERYLHDESGLNRRHIIDNRVHCCFYFISPFGHGLKPLDVAFMKAIHNKVNIVPVIAKADTLTLKERERLKKRILDEIEEHNIKIYHLPDAESDEDEDFKEQTRLLKASIPFSVVGSNQLIEAKGKKVRGRLYPWGVVEVENPEHNDFLKLRTMLITHMQDLQEVTQDLHYENFRSERLKRGGRKVENEDMNKDQILLEKEAELRRMQEMIARMQAQMQMQMQGGDGDGGALGHHV [SEPT2] | 0.276 | -0.0125 |
| MAAAAVSSAKRSLRGELKQRLRAMSAEERLRQSRVLSQKVIAHSEYQKSKRISIFLSMQDEIETEEIIKDIFQRGKICFIPRYRFQSNHMDMVRIESPEEISLLPKTSWNIPQPGEGDVREEALSTGGLDLIFMPGLGFDKHGNRLGRGKGYYDAYLKRCLQHQEVKPYTLALAFKEQICLQVPVNENDMKVDEVLYEDSSTA [MTHFS] | 0.146 | 0.0622 |
| MAAGGSGGRASCPPGVGVGPGTGGSPGPSANAAATPAPGNAAAAAAAAAAAAAAPGPTPPAPPGPGTDAQAAGAERAEEAAGPGAAALQREAAYNWQASKPTVQERFAFLFNNEVLCDVHFLVGKGLSSQRIPAHRFVLAVGSAVFDAMFNGGMATTSTEIELPDVEPAAFLALLKFLYSDEVQIGPETVMTTLYTAKKYAVPALEAHCVEFLKKNLRADNAFMLLTQARLFDEPQLASLCLENIDKNTADAITAEGFTDIDLDTLVAVLERDTLGIREVRLFNAVVRWSEAECQRQQLQVTPENRRKVLGKALGLIRFPLMTIEEFAAGPAQSGILVDREVVSLFLHFTVNPKPRVEFIDRPRCCLRGKECSINRFQQVESRWGYSGTSDRIRFSVNKRIFVVGFGLYGSIHGPTDYQVNIQIIHTDSNTVLGQNDTGFSCDGSASTFRVMFKEPVEVLPNVNYTACATLKGPDSHYGTKGLRKVTHESPTTGAKTCFTFCYAAGNNNGTSVEDGQIPEVIFYT [BTBD2] | -0.317 | 0.0341 |
| MDPVVLSYMDSLLRQSDVSLLDPPSWLNDHIIGFAFEYFANSQFHDCSDHVSFISPEVTQFIKCTSNPAEIAMFLEPLDLPNKRVVFLAINDNSNQAAGGTHWSLLVYLQDKNSFFHYDSHSRSNSVHAKQVAEKLEAFLGRKGDKLAFVEEKAPAQQNSYDCGMYVICNTEALCQNFFRQQTESLLQLLTPAYITKKRGEWKDLITTLAKK [SENP8] | 0.62 | -0.151 |
| MAKSPENSTLEEILGQYQRSLREHASRSIHQLTCALKEGDVTIGEDAPNLSFSTSVGNEDARTAWPELQQSHAVNQLKDLLRQQADKESEVSPSRRRKMSPLRSLEHEETNMPTMHDLVHTINDQSQYIHHLEAEVKFCKEELSGMKNKIQVVVLENEGLQQQLKSQRQEETLREQTLLDASGNMHNSWITTGEDSGVGETSKRPFSHDNADFGKAASAGEQLELEKLKLTYEEKCEIEESQLKFLRNDLAEYQRTCEDLKEQLKHKEFLLAANTCNRVGGLCLKCAQHEAVLSQTHTNVHMQTIERLVKERDDLMSALVSVRSSLADTQQREASAYEQVKQVLQISEEANFEKTKALIQCDQLRKELERQAERLEKELASQQEKRAIEKDMMKKEITKEREYMGSKMLILSQNIAQLEAQVEKVTKEKISAINQLEEIQSQLASREMDVTKVCGEMRYQLNKTNMEKDEAEKEHREFRAKTNRDLEIKDQEIEKLRIELDESKQHLEQEQQKAALAREECLRLTELLGESEHQLHLTRQEKDSIQQSFSKEAKAQALQAQQREQELTQKIQQMEAQHDKTENEQYLLLTSQNTFLTKLKEECCTLAKKLEQISQKTRSEIAQLSQEKRYTYDKLGKLQRRNEELEEQCVQHGRVHETMKQRLRQLDKHSQATAQQLVQLLSKQNQLLLERQSLSEEVDRLRTQLPSMPQSDC [SDCCAG8] | 0.52 | 0.0872 |
| MAAELRMILYEDDSVQVQYVDGSTLQLSPCGSEFLFEKSPPVSAHPLEQPERIRQRTHFVISTYREQLQRALDFRNSSATCPFLSETIIPSERKKHIFIDITEVRWPSLDTDGTMIYMESGIVKITSLDGHAYLCLPRSQHEFTVHFLCKVSQKSDSSAVLSETNNKAPKDKLVEKTGKICIRGNLPGQRLKNKENEFHCQIMKSKETLKKMSCVNGTEGREELPSPGTKHTCVYTWVKQCWSVAACPEEWKYPLSLALHFHNKISNMSKIDAHITQSRFLTSDISEERGKVVSVLPRALSLSCPVPHLHRWNFCDSLLQRQSDEYSYPELVKMVWYKGVTYRLTHQNMNSIEIYSGDGSVFKSEGAYFGNYFTYYSIQEGSGKREEKTYSVNNLPPDRPGSPFTVGSLIKQATRILQHCVKMRLSLSHNYRICCWKMVPGINDSNILPLVLKESLIPSVGRFLAYSDDKVHAIFLDGITLTLNWNFSSPIEKRQVNQGLNLGWCKLTFPDGQEQLIQIEHPEPYERYVTTVTSWCRRLTQTSPREMPTHSSSSVLQENWSVASELEKIQKFNLLLENSGILNQISNKKNEQQSFDHYKPGSSETLLGEVNENRVSIALKKTSEILHDIDCLLSNSKK [C5ORF34] | -0.136 | -0.0287 |
| MGKSCKVVVCGQASVGKTSILEQLLYGNHVVGSEMIETQEDIYVGSIETDRGVREQVRFYDTRGLRDGAELPRHCFSCTDGYVLVYSTDSRESFQRVELLKKEIDKSKDKKEVTIVVLGNKCDLQEQRRVDPDVAQHWAKSEKVKLWEVSVADRRSLLEPFVYLASKMTQPQSKSAFPLSRKNKGSGSLDG [NKIRAS2] | -0.133 | -0.0114 |
| MVPPVQVSPLIKLGRYSALFLGVAYGATRYNYLKPRAEEERRIAAEEKKKQDELKRIARELAEDDSILK [ATP5I] | -0.147 | 0.197 |
| TFAP2C | -0.0214 | 0.119 |
